Results from IntAct's records for PubMed 20059542.

B1: 26S proteasome non-ATPase regulatory subunit 4 (Homo sapiens), P55036 (parent)
chain: MVLESTMVCVDNSEYMRNGDFLPTRLQAQQDAVNIVCHSKTRSNPENNVGLITLANDCEVLTTLTPDTGRILSKLHTVQPKGKITFCTGIRVAHLALKHRQGKNHKMRIIAFVGSPVEDNEKDLVKLAKRLKKEKVNVDIINFGEEEVNTEKLTAFVNTLNGKDGTGSHLVTVPPGPSLADALISSPILAGEGGAMLGLGASDFEFGVDPSADPELALALRVSMEEQRQRQEEEARRAAAASAAEAGIATTGTEDSDDALLKMTISQQEFGRTGLPDLSSMTEEEQIAYAMQMSLQGAEFGQAESADIDASSAMDTSEPAKEEDDYDVMQDPEFLQSVLENLPGVDPNNEAIRNAMGSLASQATKDGKKDKKEEDKK
B2: UV excision repair protein RAD23 homolog B (Homo sapiens), P54727 (parent)
chain: MQVTLKTLQQQTFKIDIDPEETVKALKEKIESEKGKDAFPVAGQKLIYAGKILNDDTALKEYKIDEKNFVVVMVTKPKAVSTPAPATTQQSAPASTTAVTSSTTTTVAQAPTPVPALAPTSTPASITPASATASSEPAPASAAKQEKPAEKPAETPVATSPTATDSTSGDSSRSNLFEDATSALVTGQSYENMVTEIMSMGYEREQVIAALRASFNNPDRAVEYLLMGIPGDRESQAVVDPPQAASTGAPQSSAVAAAAATTTATTTTTSSGGHPLEFLRNQPQFQQMRQIIQQNPSLLPALLQQIGRENPQLLQQISQHQEHFIQMLNEPVQEAGGQGGGGGGGSGGIAEAGSGHMNYIQVTPQEKEAIERLKALGFPEGLVIQAYFACEKNENLAANFLLQQNFDED

Variants of: B1
Settings: with ubql1_human UBQLN1, Q9UMX0
Chain of ubql1_human UBQLN1, Q9UMX0 (Q9UMX0 whole entry): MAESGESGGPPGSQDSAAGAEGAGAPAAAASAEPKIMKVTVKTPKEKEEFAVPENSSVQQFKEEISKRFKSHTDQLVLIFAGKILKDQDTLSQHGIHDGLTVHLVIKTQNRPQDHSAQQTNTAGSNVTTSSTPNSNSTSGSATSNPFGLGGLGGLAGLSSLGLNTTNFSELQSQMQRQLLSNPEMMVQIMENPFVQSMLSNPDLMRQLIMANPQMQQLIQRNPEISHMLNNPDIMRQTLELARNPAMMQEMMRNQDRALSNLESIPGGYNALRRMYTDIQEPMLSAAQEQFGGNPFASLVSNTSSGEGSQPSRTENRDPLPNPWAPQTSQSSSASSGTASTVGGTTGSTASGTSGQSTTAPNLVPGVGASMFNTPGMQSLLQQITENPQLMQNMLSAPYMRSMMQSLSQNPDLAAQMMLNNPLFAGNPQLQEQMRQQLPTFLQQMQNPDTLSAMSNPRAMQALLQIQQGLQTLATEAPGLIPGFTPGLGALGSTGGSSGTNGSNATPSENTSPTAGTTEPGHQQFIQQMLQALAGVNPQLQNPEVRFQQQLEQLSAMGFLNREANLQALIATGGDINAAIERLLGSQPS

Row | effect of a mutation on the interaction | Variant
1 | decreasing interaction strength | MVLESTMVCVDNSEYMRNGDFLPTRLQAQQDAVNIVCHSKTRSNPENNVGLITLANDCEVLTTLTPDTGRILSKLHTVQPKGKITFCTGIRVAHLALKHRQGKNHKMRIIAFVGSPVEDNEKDLVKLAKRLKKEKVNVDIINFGEEEVNTEKLTAFVNTLNGKDGTGSHLVTVPPGPSLADALISSPILAGEGGAMLGLGASDFEFGVDPSADPENNNNNRVSMEEQRQRQEEEARRAAAASAAEAGIATTGTEDSDDALLKMTISQQEFGRTGLPDLSSMTEEEQIAYAMQMSLQGAEFGQAESADIDASSAMDTSEPAKEEDDYDVMQDPEFLQSVLENLPGVDPNNEAIRNAMGSLASQATKDGKKDKKEEDKK [L216N;A217N;L218N;A219N;L220N]
2 | disrupting interaction strength | MVLESTMVCVDNSEYMRNGDFLPTRLQAQQDAVNIVCHSKTRSNPENNVGLITLANDCEVLTTLTPDTGRILSKLHTVQPKGKITFCTGIRVAHLALKHRQGKNHKMRIIAFVGSPVEDNEKDLVKLAKRLKKEKVNVDIINFGEEEVNTEKLTAFVNTLNGKDGTGSHLVTVPPGPSLADALISSPILAGEGGAMLGLGASDFEFGVDPSADPENNNNNRVSMEEQRQRQEEEARRAAAASAAEAGIATTGTEDSDDALLKMTISQQEFGRTGLPDLSSMTEEEQNNNNNQMSLQGAEFGQAESADIDASSAMDTSEPAKEEDDYDVMQDPEFLQSVLENLPGVDPNNEAIRNAMGSLASQATKDGKKDKKEEDKK [L216N;A217N;L218N;A219N;L220N;I287N;A288N;Y289N;A290N;M291N]

Variants of: B1
Settings: with ubql2_human UBQLN2, Q9UHD9
Chain of ubql2_human UBQLN2, Q9UHD9 (Q9UHD9 whole entry): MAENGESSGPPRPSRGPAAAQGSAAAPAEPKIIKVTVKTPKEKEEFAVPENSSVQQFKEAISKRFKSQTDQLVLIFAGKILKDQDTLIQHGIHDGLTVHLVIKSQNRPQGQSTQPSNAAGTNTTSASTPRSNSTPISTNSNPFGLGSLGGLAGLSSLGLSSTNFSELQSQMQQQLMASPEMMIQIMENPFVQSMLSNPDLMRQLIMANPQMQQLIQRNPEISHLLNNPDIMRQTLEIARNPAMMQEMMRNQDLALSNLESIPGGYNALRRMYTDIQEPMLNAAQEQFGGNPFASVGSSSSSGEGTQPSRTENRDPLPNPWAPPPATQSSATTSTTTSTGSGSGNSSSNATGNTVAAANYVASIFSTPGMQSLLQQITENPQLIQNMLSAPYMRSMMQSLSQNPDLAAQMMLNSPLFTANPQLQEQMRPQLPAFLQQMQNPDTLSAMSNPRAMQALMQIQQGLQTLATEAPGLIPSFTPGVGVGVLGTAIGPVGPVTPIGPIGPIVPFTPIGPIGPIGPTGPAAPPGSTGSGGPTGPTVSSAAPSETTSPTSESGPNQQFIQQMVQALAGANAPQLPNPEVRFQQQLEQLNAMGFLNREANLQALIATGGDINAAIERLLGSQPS

Row | effect of a mutation on the interaction | Variant
3 | with no effect | MVLESTMVCVDNSEYMRNGDFLPTRLQAQQDAVNIVCHSKTRSNPENNVGLITLANDCEVLTTLTPDTGRILSKLHTVQPKGKITFCTGIRVAHLALKHRQGKNHKMRIIAFVGSPVEDNEKDLVKLAKRLKKEKVNVDIINFGEEEVNTEKLTAFVNTLNGKDGTGSHLVTVPPGPSLADALISSPILAGEGGAMLGLGASDFEFGVDPSADPENNNNNRVSMEEQRQRQEEEARRAAAASAAEAGIATTGTEDSDDALLKMTISQQEFGRTGLPDLSSMTEEEQIAYAMQMSLQGAEFGQAESADIDASSAMDTSEPAKEEDDYDVMQDPEFLQSVLENLPGVDPNNEAIRNAMGSLASQATKDGKKDKKEEDKK [L216N;A217N;L218N;A219N;L220N]
4 | disrupting interaction strength | MVLESTMVCVDNSEYMRNGDFLPTRLQAQQDAVNIVCHSKTRSNPENNVGLITLANDCEVLTTLTPDTGRILSKLHTVQPKGKITFCTGIRVAHLALKHRQGKNHKMRIIAFVGSPVEDNEKDLVKLAKRLKKEKVNVDIINFGEEEVNTEKLTAFVNTLNGKDGTGSHLVTVPPGPSLADALISSPILAGEGGAMLGLGASDFEFGVDPSADPENNNNNRVSMEEQRQRQEEEARRAAAASAAEAGIATTGTEDSDDALLKMTISQQEFGRTGLPDLSSMTEEEQNNNNNQMSLQGAEFGQAESADIDASSAMDTSEPAKEEDDYDVMQDPEFLQSVLENLPGVDPNNEAIRNAMGSLASQATKDGKKDKKEEDKK [L216N;A217N;L218N;A219N;L220N;I287N;A288N;Y289N;A290N;M291N]

Variants of: B1
Settings: with dsk2_yeast DSK2, P48510
Chain of dsk2_yeast DSK2, P48510 (P48510 whole entry): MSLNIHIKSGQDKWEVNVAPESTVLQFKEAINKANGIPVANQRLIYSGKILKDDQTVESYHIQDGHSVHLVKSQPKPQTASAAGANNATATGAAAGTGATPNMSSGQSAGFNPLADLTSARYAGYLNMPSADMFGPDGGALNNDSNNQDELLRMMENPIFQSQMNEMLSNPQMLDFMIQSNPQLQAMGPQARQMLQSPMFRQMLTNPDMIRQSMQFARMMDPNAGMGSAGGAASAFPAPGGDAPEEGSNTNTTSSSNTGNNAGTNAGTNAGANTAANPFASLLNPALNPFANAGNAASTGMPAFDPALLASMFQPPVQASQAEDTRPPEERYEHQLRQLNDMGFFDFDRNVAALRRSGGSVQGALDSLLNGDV

Row | effect of a mutation on the interaction | Variant
5 | disrupting interaction strength | MVLESTMVCVDNSEYMRNGDFLPTRLQAQQDAVNIVCHSKTRSNPENNVGLITLANDCEVLTTLTPDTGRILSKLHTVQPKGKITFCTGIRVAHLALKHRQGKNHKMRIIAFVGSPVEDNEKDLVKLAKRLKKEKVNVDIINFGEEEVNTEKLTAFVNTLNGKDGTGSHLVTVPPGPSLADALISSPILAGEGGAMLGLGASDFEFGVDPSADPENNNNNRVSMEEQRQRQEEEARRAAAASAAEAGIATTGTEDSDDALLKMTISQQEFGRTGLPDLSSMTEEEQIAYAMQMSLQGAEFGQAESADIDASSAMDTSEPAKEEDDYDVMQDPEFLQSVLENLPGVDPNNEAIRNAMGSLASQATKDGKKDKKEEDKK [L216N;A217N;L218N;A219N;L220N]
6 | disrupting interaction strength | MVLESTMVCVDNSEYMRNGDFLPTRLQAQQDAVNIVCHSKTRSNPENNVGLITLANDCEVLTTLTPDTGRILSKLHTVQPKGKITFCTGIRVAHLALKHRQGKNHKMRIIAFVGSPVEDNEKDLVKLAKRLKKEKVNVDIINFGEEEVNTEKLTAFVNTLNGKDGTGSHLVTVPPGPSLADALISSPILAGEGGAMLGLGASDFEFGVDPSADPENNNNNRVSMEEQRQRQEEEARRAAAASAAEAGIATTGTEDSDDALLKMTISQQEFGRTGLPDLSSMTEEEQNNNNNQMSLQGAEFGQAESADIDASSAMDTSEPAKEEDDYDVMQDPEFLQSVLENLPGVDPNNEAIRNAMGSLASQATKDGKKDKKEEDKK [L216N;A217N;L218N;A219N;L220N;I287N;A288N;Y289N;A290N;M291N]

Variants of: B1
Settings: with rd23b_human RAD23B

Row | effect of a mutation on the interaction | Variant
7 | decreasing interaction strength | MVLESTMVCVDNSEYMRNGDFLPTRLQAQQDAVNIVCHSKTRSNPENNVGLITLANDCEVLTTLTPDTGRILSKLHTVQPKGKITFCTGIRVAHLALKHRQGKNHKMRIIAFVGSPVEDNEKDLVKLAKRLKKEKVNVDIINFGEEEVNTEKLTAFVNTLNGKDGTGSHLVTVPPGPSLADALISSPILAGEGGAMLGLGASDFEFGVDPSADPENNNNNRVSMEEQRQRQEEEARRAAAASAAEAGIATTGTEDSDDALLKMTISQQEFGRTGLPDLSSMTEEEQIAYAMQMSLQGAEFGQAESADIDASSAMDTSEPAKEEDDYDVMQDPEFLQSVLENLPGVDPNNEAIRNAMGSLASQATKDGKKDKKEEDKK [L216N;A217N;L218N;A219N;L220N]
8 | disrupting interaction strength | MVLESTMVCVDNSEYMRNGDFLPTRLQAQQDAVNIVCHSKTRSNPENNVGLITLANDCEVLTTLTPDTGRILSKLHTVQPKGKITFCTGIRVAHLALKHRQGKNHKMRIIAFVGSPVEDNEKDLVKLAKRLKKEKVNVDIINFGEEEVNTEKLTAFVNTLNGKDGTGSHLVTVPPGPSLADALISSPILAGEGGAMLGLGASDFEFGVDPSADPENNNNNRVSMEEQRQRQEEEARRAAAASAAEAGIATTGTEDSDDALLKMTISQQEFGRTGLPDLSSMTEEEQNNNNNQMSLQGAEFGQAESADIDASSAMDTSEPAKEEDDYDVMQDPEFLQSVLENLPGVDPNNEAIRNAMGSLASQATKDGKKDKKEEDKK [L216N;A217N;L218N;A219N;L220N;I287N;A288N;Y289N;A290N;M291N]

Variants of: B2
Settings: with ubc_human UBC

Row | effect of a mutation on the interaction | Variant
9 | decreasing interaction strength | M200A;G201A;Y202A

Variants of: B2
Settings: with ubc_human UBC
Remark: another data set of the same source

Row | effect of a mutation on the interaction | Variant
10 | disrupting interaction strength | M200A;G201A;Y202A;L376A;G377A;F378A
11 | decreasing interaction strength | L376A;G377A;F378A

Variants of: B2
Settings: with psmd4_human PSMD4, P55036

Row | effect of a mutation on the interaction | Variant
12 | disrupting interaction | L8A
